Assay results taken from the Human Domainome abundance scans (Beltran et al. 2025).
± gives the uncertainty stated by the source.

B1: TOX high mobility group box family member 3, residues 256 to 323; numbered along this chain, O15405 (parent)
chain: QKPVSAYALFFRDTQAAIKGQNPNATFGEVSKIVASMWDSLGEEQKQVYKRKTEAAKKEYLKALAAYR

Variants of: B1
Assay: abundance fitness (aPCA) (normalised: wild type 0, dead -1); higher = more abundant; growth selection in yeast, the domain comes from the species named
Conditions: Homo sapiens

Variant | abundance fitness
E59H | -0.744 ± 0.34
I33M | 0.101 ± 0.071
I33F | -0.5 ± 0.25
I33D | -0.771 ± 0.18
R12V | -0.433 ± 0.1
R12E | 0.054 ± 0.1
R12N | 0.168 ± 0.093
F10T | -0.53 ± 0.11
F10Y | 0.047 ± 0.12
F10Q | -0.71 ± 0.19
F10S | -0.267 ± 0.15
F10I | -0.98 ± 0.34
R51K | 0.05 ± 0.084
R51T | 0.042 ± 0.047
R51Q | -0.041 ± 0.058
T53R | -0.111 ± 0.043
T53Y | 0.276 ± 0.094
T53G | 0.073 ± 0.049
T53K | 0.001 ± 0.098
T53E | 0.257 ± 0.063
T53V | 0.146 ± 0.047

Variant | abundance fitness
N22I | -0.515 ± 0.13
N22D | -0.41 ± 0.31
N22M | -0.437 ± 0.12
K58E | 0.044 ± 0.097
K58G | -0.068 ± 0.051
K58C | -0.095 ± 0.075
G42A | -0.088 ± 0.052
G42K | -0.037 ± 0.077
G42S | 0.086 ± 0.048
P3C | -0.342 ± 0.076
P3L | -0.145 ± 0.045
P3I | -0.228 ± 0.096
P3V | -0.14 ± 0.088
P3Y | -0.332 ± 0.12
P3N | -0.163 ± 0.083
P3S | -0.052 ± 0.046
K2C | -0.434 ± 0.13
K2P | -0.267 ± 0.085
Q45L | -0.433 ± 0.06
Q45I | -0.479 ± 0.1
T14S | 0.087 ± 0.077

Variant | abundance fitness
T14I | -0.326 ± 0.12
T14N | -0.278 ± 0.14
V34N | -0.655 ± 0.27
V34G | -0.358 ± 0.06
V34H | -1.06 ± 0.23
V34Q | -0.954 ± 0.38
V4G | -0.005 ± 0.063
V4P | -0.001 ± 0.077
V4W | -0.331 ± 0.063
V4F | -0.148 ± 0.078
V4C | -0.097 ± 0.051
V4E | 0.155 ± 0.064
A8C | 0.163 ± 0.097
A8Q | 0.09 ± 0.081
A8K | 0.009 ± 0.074
A8Y | -0.458 ± 0.24
L64S | 0.128 ± 0.057
L64T | 0.236 ± 0.056
L64Y | -0.172 ± 0.075
Y60P | -0.052 ± 0.076
Y60A | 0.043 ± 0.059

Variant | abundance fitness
Y60Q | 0.128 ± 0.069
Y60F | 0.068 ± 0.29
F11N | -0.19 ± 0.13
F11Y | -0.278 ± 0.19
F11P | -1.17 ± 0.24
F11G | -0.915 ± 0.17
F11L | -0.176 ± 0.069
F11S | -0.264 ± 0.1
D39C | -0.055 ± 0.43
D39H | -0.065 ± 0.09
D39T | -0.292 ± 0.092
A63S | 0.132 ± 0.043
A63D | 0.08 ± 0.081
A63G | 0.201 ± 0.044
A63L | -0.395 ± 0.047
K46P | -0.978 ± 0.19
K46C | -0.714 ± 0.18
W38V | -1.07 ± 0.14
W38Y | -0.206 ± 0.14
W38N | -0.843 ± 0.26
